This is an account of results in US20240228596A1.

The experiment addresses SARS-COV-2 Wuhan WT Spike_del18 on VSV-delG pseudotyped particles (SARS-COV-2) (UniProt P0DTC2). Kind of experiment: cell-based or functional assay.

“pX-B001_GS-VHH72-h1-E1D-S56A_(G4S)6_VHH72-h1-E1D-S56A_His8” registered an IC50 ug/ml, pseudoneutralization assay of 0.169 µg/mL.

In the case of “pX-B002_GS-VHH72-h1-E1D-S56A_(G4S)_VHH72-h1-E1D-S56A_His8”, the IC50 ug/ml, pseudoneutralization assay was determined as 0.108 µg/mL.

Turning to “pX-B003_GS-VHH72-h1-E1D-S56A_(G4S)4_VHH72-h1-E1D-S56A_His8”, the IC50 ug/ml, pseudoneutralization assay came out at 0.361 µg/mL.
